# According to the supplement of paper PMC9112550, “Optimization of the antimicrobial peptide Bac7 by deep mutational scanning” (BMC Biology, 2022):
# Test system: Escherichia coli TOP10
# Assay: shrunken log2 fold change of peptide-encoding DNA abundance (4.5 h post-induction vs induction); higher = less antimicrobial activity (less host growth inhibition)
# Settings: time post-induction: 4.5 h; library: site-saturation at positions 5, 18, 19, 20
# 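Also: peptides expressed intracellularly from a pBAD plasmid library in pooled LB shake-flask culture, induced with 0.3% L-arabinose, DNA abundance read by NGS, three biological replicates, DESeq2 with apeglm shrinkage.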
row,Sequence,shrunken log2 fold change
1,RRIRNRPPRLPRPRPRPDLQPRP,-0.0156
2,RRIRQRPPRLPRPRPRPGALPRP,0.0446
3,RRIRCRPPRLPRPRPRPAREPRP,0.0467
4,RRIRYRPPRLPRPRPRPLVTPRP,-0.616
5,RRIRDRPPRLPRPRPRPTHVPRP,0.244
6,RRIRHRPPRLPRPRPRPDWHPRP,2.17
7,RRIRNRPPRLPRPRPRPNPDPRP,-0.322
8,RRIRVRPPRLPRPRPRPSWNPRP,-0.371
9,RRIRMRPPRLPRPRPRPIMPPRP,0.0288
10,RRIRFRPPRLPRPRPRPSIGPRP,-0.139
11,RRIRKRPPRLPRPRPRPLQLPRP,0.166
12,RRIRNRPPRLPRPRPRPMVNPRP,-0.00142
13,RRIRKRPPRLPRPRPRPGTDPRP,-0.165
14,RRIRHRPPRLPRPRPRPRDDPRP,-0.0505
15,RRIRFRPPRLPRPRPRPGRWPRP,0.653
16,RRIRSRPPRLPRPRPRPFYKPRP,-0.426
17,RRIRQRPPRLPRPRPRPTFGPRP,0.343
18,RRIRDRPPRLPRPRPRPADVPRP,0.384
19,RRIRMRPPRLPRPRPRPRTHPRP,0.28
20,RRIRPRPPRLPRPRPRPPQIPRP,0.138
21,RRIRCRPPRLPRPRPRPFDDPRP,0.0116
22,RRIRNRPPRLPRPRPRPDIMPRP,-0.039
23,RRIRLRPPRLPRPRPRPVMWPRP,0.283
24,RRIRARPPRLPRPRPRPNAYPRP,0.0893
25,RRIRSRPPRLPRPRPRPNRMPRP,0.309

row,Sequence,shrunken log2 fold change
1,RRIRERPPRLPRPRPRPFFIPRP,-0.354
2,RRIRKRPPRLPRPRPRPESFPRP,0.0651
3,RRIRVRPPRLPRPRPRPARIPRP,0.149
4,RRIRCRPPRLPRPRPRPFFIPRP,-0.484
5,RRIRRRPPRLPRPRPRPDHMPRP,-0.0178
6,RRIRARPPRLPRPRPRPPTCPRP,0.559
7,RRIRMRPPRLPRPRPRPIESPRP,0.000778
8,RRIRCRPPRLPRPRPRPGLMPRP,-0.102
9,RRIRHRPPRLPRPRPRPWVSPRP,-0.683
10,RRIRARPPRLPRPRPRPYWAPRP,-0.106
11,RRIRWRPPRLPRPRPRPLCIPRP,-0.275
12,RRIRARPPRLPRPRPRPRFWPRP,0.691
13,RRIRIRPPRLPRPRPRPYRLPRP,0.00643
14,RRIRARPPRLPRPRPRPDGEPRP,0.209
15,RRIRFRPPRLPRPRPRPHRDPRP,-0.36
16,RRIRERPPRLPRPRPRPYITPRP,-1.07
17,RRIRKRPPRLPRPRPRPMQLPRP,0.197
18,RRIRFRPPRLPRPRPRPFNHPRP,-0.285
19,RRIRCRPPRLPRPRPRPSSSPRP,-0.366
20,RRIRERPPRLPRPRPRPSQMPRP,0.0681
21,RRIRMRPPRLPRPRPRPSLQPRP,0.385
22,RRIRLRPPRLPRPRPRPYYEPRP,-0.493
23,RRIRPRPPRLPRPRPRPCMAPRP,-0.151
24,RRIRSRPPRLPRPRPRPYNPPRP,-0.953
25,RRIRFRPPRLPRPRPRPAEYPRP,-0.397

row,Sequence,shrunken log2 fold change
1,RRIRKRPPRLPRPRPRPGHAPRP,0.667
2,RRIRRRPPRLPRPRPRPMIPPRP,-0.062
3,RRIRYRPPRLPRPRPRPRHRPRP,0.0433
4,RRIRVRPPRLPRPRPRPKINPRP,-0.18
5,RRIRVRPPRLPRPRPRPHGYPRP,-0.298
6,RRIRERPPRLPRPRPRPTWGPRP,-0.0539
7,RRIRGRPPRLPRPRPRPRCSPRP,0.415
8,RRIRERPPRLPRPRPRPCVTPRP,-0.322
9,RRIRYRPPRLPRPRPRPQWRPRP,0.0697
10,RRIRTRPPRLPRPRPRPSVMPRP,-0.372
11,RRIRKRPPRLPRPRPRPYGAPRP,0.00792
12,RRIRCRPPRLPRPRPRPYTDPRP,-0.431
13,RRIRGRPPRLPRPRPRPCLRPRP,0.459
14,RRIRWRPPRLPRPRPRPQFDPRP,0.0373
15,RRIRSRPPRLPRPRPRPDWTPRP,-0.179
16,RRIRNRPPRLPRPRPRPILCPRP,-0.174
17,RRIRPRPPRLPRPRPRPDLMPRP,0.303
18,RRIRKRPPRLPRPRPRPSIHPRP,-0.551
19,RRIRVRPPRLPRPRPRPNHGPRP,-0.0115
20,RRIRARPPRLPRPRPRPVNEPRP,0.356
21,RRIRVRPPRLPRPRPRPDQTPRP,-0.002
22,RRIRSRPPRLPRPRPRPHMRPRP,-0.0431
23,RRIRGRPPRLPRPRPRPWIWPRP,0.236
24,RRIRGRPPRLPRPRPRPPIIPRP,-0.0886
25,RRIRARPPRLPRPRPRPIDRPRP,-0.027

row,Sequence,shrunken log2 fold change
1,RRIRHRPPRLPRPRPRPNIRPRP,0.0598
2,RRIRFRPPRLPRPRPRPWLWPRP,-0.052
3,RRIRMRPPRLPRPRPRPNKMPRP,-0.134
4,RRIRTRPPRLPRPRPRPTCEPRP,0.125
5,RRIRMRPPRLPRPRPRPEPMPRP,0.386
6,RRIRWRPPRLPRPRPRPMHFPRP,-0.00884
7,RRIRTRPPRLPRPRPRPEPMPRP,0.00621
8,RRIRVRPPRLPRPRPRPSHGPRP,-0.143
9,RRIRTRPPRLPRPRPRPCMVPRP,-0.576
10,RRIRLRPPRLPRPRPRPQNQPRP,-0.159
11,RRIRWRPPRLPRPRPRPFFAPRP,0.367
12,RRIRLRPPRLPRPRPRPASFPRP,-0.0339
13,RRIRSRPPRLPRPRPRPTTYPRP,-0.359
14,RRIRPRPPRLPRPRPRPFYWPRP,-0.107
15,RRIRERPPRLPRPRPRPVVLPRP,-0.0819
16,RRIRVRPPRLPRPRPRPLSHPRP,-0.32
17,RRIRSRPPRLPRPRPRPCQQPRP,-0.147
18,RRIRLRPPRLPRPRPRPECMPRP,0.442
19,RRIRERPPRLPRPRPRPARSPRP,0.0919
20,RRIRERPPRLPRPRPRPILMPRP,-0.317
21,RRIRVRPPRLPRPRPRPKHPPRP,0.28
22,RRIRCRPPRLPRPRPRPYLLPRP,-0.559
23,RRIRERPPRLPRPRPRPHYQPRP,-0.267
24,RRIRTRPPRLPRPRPRPDQNPRP,0.0691
25,RRIRRRPPRLPRPRPRPWDHPRP,0.0105

row,Sequence,shrunken log2 fold change
1,RRIRSRPPRLPRPRPRPIMCPRP,-0.572
2,RRIRHRPPRLPRPRPRPAQWPRP,0.112
3,RRIRERPPRLPRPRPRPMPLPRP,0.000847
4,RRIRQRPPRLPRPRPRPKQCPRP,-0.288
5,RRIRCRPPRLPRPRPRPQCFPRP,-0.187
6,RRIRIRPPRLPRPRPRPKLHPRP,-0.0109
7,RRIRLRPPRLPRPRPRPDIRPRP,-0.15
8,RRIRTRPPRLPRPRPRPDNQPRP,-0.337
9,RRIRKRPPRLPRPRPRPNGRPRP,0.131
10,RRIRSRPPRLPRPRPRPCGDPRP,-0.0559
11,RRIRNRPPRLPRPRPRPGFAPRP,0.444
12,RRIRSRPPRLPRPRPRPFWYPRP,-0.185
13,RRIRKRPPRLPRPRPRPCHRPRP,0.00781
14,RRIRERPPRLPRPRPRPLHVPRP,-0.268
15,RRIRRRPPRLPRPRPRPEHAPRP,0.686
16,RRIRCRPPRLPRPRPRPPAKPRP,0.741
17,RRIRQRPPRLPRPRPRPIFEPRP,-0.224
18,RRIRIRPPRLPRPRPRPVEHPRP,0.0873
19,RRIRGRPPRLPRPRPRPEFWPRP,2.24
20,RRIRERPPRLPRPRPRPENTPRP,-0.354
21,RRIRDRPPRLPRPRPRPVYHPRP,-0.0857
22,RRIRTRPPRLPRPRPRPAPIPRP,0.0613
23,RRIRKRPPRLPRPRPRPGMVPRP,0.8
24,RRIRVRPPRLPRPRPRPYWPPRP,-0.182
25,RRIRVRPPRLPRPRPRPPAVPRP,0.523

row,Sequence,shrunken log2 fold change
1,RRIRHRPPRLPRPRPRPQYGPRP,-0.0192
2,RRIRQRPPRLPRPRPRPFLEPRP,-0.155
3,RRIRVRPPRLPRPRPRPEKNPRP,0.0805
4,RRIRPRPPRLPRPRPRPYRVPRP,0.101
5,RRIRTRPPRLPRPRPRPQFSPRP,-0.823
6,RRIRMRPPRLPRPRPRPRQHPRP,0.47
7,RRIRWRPPRLPRPRPRPNYFPRP,-0.167
8,RRIRYRPPRLPRPRPRPEKLPRP,-0.034
9,RRIRTRPPRLPRPRPRPQYVPRP,-0.336
10,RRIRQRPPRLPRPRPRPVMEPRP,-0.028
11,RRIRMRPPRLPRPRPRPKNCPRP,0.0597
12,RRIRCRPPRLPRPRPRPIDKPRP,-0.161
13,RRIRTRPPRLPRPRPRPQFPPRP,-0.0282
14,RRIRWRPPRLPRPRPRPMRLPRP,0.905
15,RRIRTRPPRLPRPRPRPMRSPRP,0.232
16,RRIRTRPPRLPRPRPRPSGHPRP,-0.17
17,RRIRLRPPRLPRPRPRPVVLPRP,-0.0303
18,RRIRFRPPRLPRPRPRPQLLPRP,0.0217
19,RRIRNRPPRLPRPRPRPKLVPRP,0.163
20,RRIRRRPPRLPRPRPRPCPPPRP,0.0965
21,RRIRTRPPRLPRPRPRPCILPRP,-0.831
22,RRIRTRPPRLPRPRPRPCGHPRP,-0.14
23,RRIRMRPPRLPRPRPRPETKPRP,0.253
24,RRIRKRPPRLPRPRPRPSVIPRP,-0.0922
25,RRIRDRPPRLPRPRPRPGQGPRP,0.257
